Assay results as given in US20250262271A1 (ARIZONA BOARD OF REGENTS ON BEHALF OF THE UNIVERSITY OF …, published 2025).

Target: T1, Kog1-FLAG (Saccharomyces cerevisiae, UniProt P38873 1-1557)
T1 construct: Bait of the TORC1 immunopurifications; also called TORC1 subunit Kog1/Raptor with FLAG tag; TORC1 (as purified through Kog1-FLAG); not shown: FLAG tag
Assay: co-immunopurification after DSP crosslinking, Western blot; long term amino acid and glucose starvation

T1 sequence (P38873 whole entry): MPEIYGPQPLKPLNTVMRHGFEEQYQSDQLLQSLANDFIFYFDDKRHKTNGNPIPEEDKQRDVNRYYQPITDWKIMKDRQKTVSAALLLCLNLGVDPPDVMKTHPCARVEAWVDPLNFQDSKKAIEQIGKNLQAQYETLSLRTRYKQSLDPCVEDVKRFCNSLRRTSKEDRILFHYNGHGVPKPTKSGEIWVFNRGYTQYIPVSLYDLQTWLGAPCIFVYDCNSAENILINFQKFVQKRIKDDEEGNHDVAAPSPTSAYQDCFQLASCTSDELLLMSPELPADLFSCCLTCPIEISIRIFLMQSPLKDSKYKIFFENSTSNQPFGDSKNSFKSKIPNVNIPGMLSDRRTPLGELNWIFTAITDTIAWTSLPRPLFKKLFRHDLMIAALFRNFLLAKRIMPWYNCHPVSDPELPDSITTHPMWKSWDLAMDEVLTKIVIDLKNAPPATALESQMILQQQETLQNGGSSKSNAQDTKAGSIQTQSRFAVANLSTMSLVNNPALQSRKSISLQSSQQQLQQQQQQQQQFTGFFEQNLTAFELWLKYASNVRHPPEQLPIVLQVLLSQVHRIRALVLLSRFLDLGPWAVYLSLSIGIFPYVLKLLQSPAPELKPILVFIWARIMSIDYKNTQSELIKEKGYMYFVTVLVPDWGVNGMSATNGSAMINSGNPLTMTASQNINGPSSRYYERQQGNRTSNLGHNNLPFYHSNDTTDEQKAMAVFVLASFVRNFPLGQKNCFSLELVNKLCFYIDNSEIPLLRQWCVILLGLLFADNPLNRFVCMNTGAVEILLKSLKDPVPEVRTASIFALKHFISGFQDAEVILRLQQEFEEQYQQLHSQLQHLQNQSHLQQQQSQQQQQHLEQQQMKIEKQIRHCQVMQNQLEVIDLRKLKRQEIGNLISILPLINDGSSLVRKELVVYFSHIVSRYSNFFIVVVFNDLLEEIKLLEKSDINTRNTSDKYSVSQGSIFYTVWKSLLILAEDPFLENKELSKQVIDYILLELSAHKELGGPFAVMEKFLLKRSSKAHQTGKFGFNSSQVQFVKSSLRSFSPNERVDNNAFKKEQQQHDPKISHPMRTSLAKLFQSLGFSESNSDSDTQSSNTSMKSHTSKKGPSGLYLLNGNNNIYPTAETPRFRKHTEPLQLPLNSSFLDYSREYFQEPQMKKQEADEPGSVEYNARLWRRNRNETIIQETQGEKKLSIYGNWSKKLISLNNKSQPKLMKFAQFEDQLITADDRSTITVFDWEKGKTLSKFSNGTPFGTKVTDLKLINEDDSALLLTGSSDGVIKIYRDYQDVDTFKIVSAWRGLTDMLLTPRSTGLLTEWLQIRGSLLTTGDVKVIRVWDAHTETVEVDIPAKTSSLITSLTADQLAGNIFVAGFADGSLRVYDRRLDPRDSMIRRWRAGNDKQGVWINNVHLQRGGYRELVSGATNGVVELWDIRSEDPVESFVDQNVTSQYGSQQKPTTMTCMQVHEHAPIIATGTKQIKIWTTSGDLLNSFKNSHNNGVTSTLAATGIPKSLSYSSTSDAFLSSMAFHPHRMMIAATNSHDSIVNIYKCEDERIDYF

B1: GFP-Ait1 (other)
chain: MVRLNHAASYFMPIFCSTRPHIVILSALFSISLFSLFYASSELLLHQYDDPLMFKPNSQDYFRTFLLGLFSPFLYYFLKTFLFNINQRFLILNLIVDFPINDVFMLLILIGLAYPQVQDHEGGTIKHKECSWHIIPRQAYIFGISWALGEFTICIIGNLFNYQEIADPNINSGFTHQESANTYCNNNDMSHNDDCGCSTEYRPNVVDRSDITLSKCIEVRNDSSSISNNVYSSEYHPIKPLRSSSSTYGSIRQQPHENKKQLHVPDNSQDDTIIMMNPIDNSLKLTTLDTGDLSFPIDEEQPILKKSFGYTWAVPNENTQNTTKSFTPIKRFIAFSTAYQLVTGLLLMILVVGSNIMLTIGESLILSMYFVYVRGHEGLFTPVVNYFGSRTISNFILCVIIPFISLNFLINTSIYLRRELDDWFNNSQGEFEDDDENTISKRVATNQEYQHPLSANYISMDSPDVINSSPGHFGMNSGQLLGNTTLYYGSLNGDDDDMTNDSALLRFCKKLVKNWRALARNDSFVLGVMVSWSLLVFVTGILSTVYI
notes: Expressed in S. cerevisiae (W303) and immunopurified from DSP-crosslinked, digitonin-treated lysate; also called Ait1-GFP; GFP-tagged Ydl180w; not shown: GFP tag
- co-purified amount relative to log phase growth: 50%
